Experiments:
HeLa Kyoto [1] = test: solubility in G1/S (NP-40 vs SDS abundance) (log2 ratio); higher = more soluble; settings: cell cycle stage: G1/S
HeLa Kyoto [2] = test: melting temperature (median over replicates), in situ; higher = more thermally stable
HeLa Kyoto [3] = test: solubility change mitosis vs G1/S (difference of NP-40 vs SDS log2 ratios) (log2 ratio difference); higher = more soluble in mitosis
HeLa Kyoto [4] = test: thermal stability score vs G1/S (z-score of summed log2 fold changes over temperatures); higher = more thermally stable than in G1/S
[5] = cell cycle stage: early G1 (4.5 h after nocodazole release)
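Wherever melting temperature (median over replicates), in situ is given: HeLa Kyoto cells synchronized by double thymidine or nocodazole block, proteins quantified by TMT10plex mass spectrometry, three independent biological replicates.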
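Wherever solubility change mitosis vs G1/S (difference of NP-40 vs SDS log2 ratios) is given: synchronized HeLa Kyoto cells (double thymidine block for G1/S, nocodazole release for mitosis), protein amounts in NP-40 versus SDS lysates quantified by mass spectrometry, three biological replicates.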
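Wherever solubility in G1/S (NP-40 vs SDS abundance) is given: HeLa Kyoto cells arrested at G1/S by double thymidine block, proteins quantified by TMT10plex mass spectrometry in mild NP-40 versus SDS extracts, three biological replicates.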
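Wherever thermal stability score vs G1/S (z-score of summed log2 fold changes over temperatures) is given: synchronized HeLa Kyoto cells, proteins quantified by TMT10plex mass spectrometry, three biological replicates, mitosis taken 0.5 h after nocodazole release, G1/S directly after double thymidine block.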

Row | Substance | solubility in G1/S (log2) (HeLa Kyoto [1]) | melting temperature (HeLa Kyoto [2]; cell cycle stage: G1/S) | melting temperature (HeLa Kyoto [2]; cell cycle stage: mitosis) | solubility change mitosis (log2) (HeLa Kyoto [3]) | thermal stability score (HeLa Kyoto [4]; [5]) | thermal stability score (HeLa Kyoto [4]; cell cycle stage: mitosis)
1 | MSDTRRRVKVYTLNEDRQWDDRGTGHVSSTYVEELKGMSLLVRAESDGSLLLESKINPNTAYQKQQDTLIVWSEAENYDLALSFQEKAGCDEIWEKICQVQGKDPSVEVTQDLIDESEEERFEEMPETSHLIDLPTCELNKLEEIADLVTSVLSSPIRREKLALALENEGYIKKLLQLFQACENLENTEGLHHLYEIIRGILFLNKATLFEVMFSDECIMDVVGCLEYDPALAQPKRHREFLTKTAKFKEVIPITDSELRQKIHQTYRVQYIQDIILPTPSVFEENFLSTLTSFIFFNKVEIVSMLQEDEKFLSEVFAQLTDEATDDDKRRELVNFFKEFCAFSQTLQPQNRDAFFKTLAKLGILPALEIVMGMDDLQVRSAATDIFSYLVEFSPSMVREFVMQEAQQSDDDILLINVVIEQMICDTDPELGGAVQLMGLLRTLIDPENMLATTNKTEKSEFLNFFYNHCMHVLTAPLLTNTSEDKCEKDFFLKHYRYSWSFICTPSHSHSHSTPSSSISQDNIVGSNKNNTICPDNYQTAQLLALILELLTFCVEHHTYHIKNYIMNKDLLRRVLVLMNSKHTFLALCALRFMRRIIGLKDEFYNRYITKGNLFEPVINALLDNGTRYNLLNSAVIELFEFIRVEDIKSLTAHIVENFYKALESIEYVQTFKGLKTKYEQEKDRQNQKLNSVPSILRSNRFRRDAKALEEDEEMWFNEDEEEEGKAVVAPVEKPKPEDDFPDNYEKFMETKKAKESEDKENLPKRTSPGGFKFTFSHSASAANGTNSKSVVAQIPPATSNGSSSKTTNLPTSVTATKGSLVGLVDYPDDEEEDEEEESSPRKRPRLGS [PPP4R3B] | 0.0425 | 49.6 °C | 49.5 °C | -0.181 | 1.17 | 1.76
2 | MASQPPPPPKPWETRRIPGAGPGPGPGPTFQSADLGPTLMTRPGQPALTRVPPPILPRPSQQTGSSSVNTFRPAYSSFSSGYGAYGNSFYGGYSPYSYGYNGLGYNRLRVDDLPPSRFVQQAEESSRGAFQSIESIVHAFASVSMMMDATFSAVYNSFRAVLDVANHFSRLKIHFTKVFSAFALVRTIRYLYRRLQRMLGLRRGSENEDLWAESEGTVACLGAEDRAATSAKSWPIFLFFAVILGGPYLIWKLLSTHSDEVTDSINWASGEDDHVVARAEYDFAAVSEEEISFRAGDMLNLALKEQQPKVRGWLLASLDGQTTGLIPANYVKILGKRKGRKTVESSKVSKQQQSFTNPTLTKGATVADSLDEQEAAFESVFVETNKVPVAPDSIGKDGEKQDL [PEX13] | -0.182 | 53.5 °C | 53.4 °C | 0.116 | -2.51 | -2.78
3 | MSGQPPPPPPQQQQQQQQLSPPPPAALAPVSGVVLPAPPAVSAGSSPAGSPGGGAGGEGLGAAAAALLLHPPPPPPPATAAPPPPPPPPPPPASAAAPASGPPAPPGLAAGPGPAGGAPTPALVAGSSAAAPFPHGDSALNEQEKELQRRLKRLYPAVDEQETPLPRSWSPKDKFSYIGLSQNNLRVHYKGHGKTPKDAASVRATHPIPAACGIYYFEVKIVSKGRDGYMGIGLSAQGVNMNRLPGWDKHSYGYHGDDGHSFCSSGTGQPYGPTFTTGDVIGCCVNLINNTCFYTKNGHSLGIAFTDLPPNLYPTVGLQTPGEVVDANFGQHPFVFDIEDYMREWRTKIQAQIDRFPIGDREGEWQTMIQKMVSSYLVHHGYCATAEAFARSTDQTVLEELASIKNRQRIQKLVLAGRMGEAIETTQQLYPSLLERNPNLLFTLKVRQFIEMVNGTDSEVRCLGGRSPKSQDSYPVSPRPFSSPSMSPSHGMNIHNLASGKGSTAHFSGFESCSNGVISNKAHQSYCHSNKHQSSNLNVPELNSINMSRSQQVNNFTSNDVDMETDHYSNGVGETSSNGFLNGSSKHDHEMEDCDTEMEVDSSQLRRQLCGGSQAAIERMIHFGRELQAMSEQLRRDCGKNTANKKMLKDAFSLLAYSDPWNSPVGNQLDPIQREPVCSALNSAILETHNLPKQPPLALAMGQATQCLGLMARSGIGSCAFATVEDYLH [RANBP9] | 0.115 | 51.6 °C | 51.1 °C | -0.126 | -0.277 | -0.378
4 | MPGFLVRILPLLLVLLLLGPTRGLRNATQRMFEIDYSRDSFLKDGQPFRYISGSIHYSRVPRFYWKDRLLKMKMAGLNAIQTYVPWNFHEPWPGQYQFSEDHDVEYFLRLAHELGLLVILRPGPYICAEWEMGGLPAWLLEKESILLRSSDPDYLAAVDKWLGVLLPKMKPLLYQNGGPVITVQVENEYGSYFACDFDYLRFLQKRFRHHLGDDVVLFTTDGAHKTFLKCGALQGLYTTVDFGTGSNITDAFLSQRKCEPKGPLINSEFYTGWLDHWGQPHSTIKTEAVASSLYDILARGASVNLYMFIGGTNFAYWNGANSPYAAQPTSYDYDAPLSEAGDLTEKYFALRNIIQKFEKVPEGPIPPSTPKFAYGKVTLEKLKTVGAALDILCPSGPIKSLYPLTFIQVKQHYGFVLYRTTLPQDCSNPAPLSSPLNGVHDRAYVAVDGIPQGVLERNNVITLNITGKAGATLDLLVENMGRVNYGAYINDFKGLVSNLTLSSNILTDWTIFPLDTEDAVRSHLGGWGHRDSGHHDEAWAHNSSNYTLPAFYMGNFSIPSGIPDLPQDTFIQFPGWTKGQVWINGFNLGRYWPARGPQLTLFVPQHILMTSAPNTITVLELEWAPCSSDDPELCAVTFVDRPVIGSSVTYDHPSKPVEKRLMPPPPQKNKDSWLDHV [GLB1] | 0.0247 | 55.6 °C | 57.6 °C | -0.293 | 0.0217 | 0.602
5 | MAAVAATAAAKGNGGGGGRAGAGDASGTRKKKGPGPLATAYLVIYNVVMTAGWLVIAVGLVRAYLAKGSYHSLYYSIEKPLKFFQTGALLEILHCAIGIVPSSVVLTSFQVMSRVFLIWAVTHSVKEVQSEDSVLLFVIAWTITEIIRYSFYTFSLLNHLPYLIKWARYTLFIVLYPMGVSGELLTIYAALPFVRQAGLYSISLPNKYNFSFDYYAFLILIMISYIPIFPQLYFHMIHQRRKILSHTEEHKKFE [HACD2] | -0.368 | 54.2 °C | 55.4 °C | 0.15 | 0.894 | -0.449
6 | EPRS | -0.115 | 48.6 °C | 49 °C | -0.127 | -0.525 | 2.58
7 | MAATFFGEVVKAPCRAGTEDEEEEEEGRRETPEDREVRLQLARKREVRLLRRQTKTSLEVSLLEKYPCSKFIIAIGNNAVAFLSSFVMNSGVWEEVGCAKLWNEWCRTTDTTHLSSTEAFCVFYHLKSNPSVFLCQCSCYVAEDQQYQWLEKVFGSCPRKNMQITILTCRHVTDYKTSESTGSLPSPFLRALKTQNFKDSACCPLLEQPNIVHDLPAAVLSYCQVWKIPAILYLCYTDVMKLDLITVEAFKPILSTRSLKGLVKNIPQSTEILKKLMTTNEIQSNIYT [PSMG1] | 0.0966 | 54.7 °C | 54.4 °C | -0.142 | -0.428 | -1.27
8 | MSTAAVPELKQISRVEAMRLGPGWSHSCHAMLYAANPGQLFGRIPMRFSVLMQMRFDGLLGFPGGFVDRRFWSLEDGLNRVLGLGLGCLRLTEADYLSSHLTEGPHRVVAHLYARQLTLEQLHAVEISAVHSRDHGLEVLGLVRVPLYTQKDRVGGFPNFLSNAFVSTAKCQLLFALKVLNMMPEEKLVEALAAATEKQKKALEKLLPASS [NUDT16L1] | -0.521 | 52 °C | 52.3 °C | 0.104 | -0.0688 | -2.32
9 | MAESPTEEAATAGAGAAGPGASSVAGVVGVSGSGGGFGPPFLPDVWAAAAAAGGAGGPGSGLAPLPGLPPSAAAHGAALLSHWDPTLSSDWDGERTAPQCLLRIKRDIMSIYKEPPPGMFVVPDTVDMTKIHALITGPFDTPYEGGFFLFVFRCPPDYPIHPPRVKLMTTGNNTVRFNPNFYRNGKVCLSILGTWTGPAWSPAQSISSVLISIQSLMTENPYHNEPGFEQERHPGDSKNYNECIRHETIRVAVCDMMEGKCPCPEPLRGVMEKSFLEYYDFYEVACKDRLHLQGQTMQDPFGEKRGHFDYQSLLMRLGLIRQKVLERLHNENAEMDSDSSSSGTETDLHGSLRV [UBE2Z] | 0.403 | 52.7 °C | 52.8 °C | -0.169 | -0.171 | -0.398
10 | MAAFLKMSVSVNFFRPFTRFLVPFTLHRKRNNLTILQRYMSSKIPAVTYPKNESTPPSEELELDKWKTTMKSSVQEECVSTISSSKDEDPLAATREFIEMWRLLGREVPEHITEEELKTLMECVSNTAKKKYLKYLYTKEKVKKARQIKKEMKAAAREEAKNIKLLETTEEDKQKNFLFLRLWDRNMDIAMGWKGAQAMQFGQPLVFDMAYENYMKRKELQNTVSQLLESEGWNRRNVDPFHIYFCNLKIDGALHRELVKRYQEKWDKLLLTSTEKSHVDLFPKDSIIYLTADSPNVMTTFRHDKVYVIGSFVDKSMQPGTSLAKAKRLNLATECLPLDKYLQWEIGNKNLTLDQMIRILLCLKNNGNWQEALQFVPKRKHTGFLEISQHSQEFINRLKKAKT [TRMT10C] | -0.0196 | 51.3 °C | 51.9 °C | -0.114 | 0.276 | 0.67
11 | MEPDIIRMYSSSPPPLDNGAEDDDDDEFGEFGGFSEVSPSGVGFVDFDTPDYTRPKEEFVPSNHFMPIHEFSENVDSLTSFKSIKNGNDKDITAELSAPVKGQSDVLLSTTSKEIISSEMLATSIDGMERPGNLNKVVEQRQNVGTLESFSPGDFRTNMNVVHQNKQLESCNGEKPPCLEILTNGFAVLETVNPQGTDDLDNVADSKGRKPLSTHSTEYNLDSVPSPAEEFADFATFSKKERIQLEEIECAVLNDREALTIRENNKINRVNELNSVKEVALGRSLDNKGDTDGEDQVCVSEISIVTNRGFSVEKQGLPTLQQDEFLQSGVQSKAWSLVDSADNSEAIRREQCKTEEKLDLLTSKCAHLCMDSVKTSDDEVGSPKEESRKFTNFQSPNIDPTEENDLDDSLSVKNGDSSNDFVTCNDINEDDFGDFGDFGSASGSTPPFVTGTQDSMSDATFEESSEHFPHFSEPGDDFGEFGDINAVSCQEETILTKSDLKQTSDNLSEECQLARKSSGTGTEPVAKLKNGQEGEIGHFDSVPNIQDDCNGFQDSDDFADFSSAGPSQVVDWNAFEDEQKDSCSWAAFGDQQATESHHRKEAWQSHRTDENIDTPGTPKTHSVPSATSKGAVASGHLQESATSVQTALLNRLERIFEACFPSILVPDAEEEVTSLKHLLETSTLPIKTREALPESGELLDVWTELQDIHDAHGLRYQWGGSHSNKKLLSSLGIDTRNILFTGNKKQPVIVPMYAAGLGMLEPTKEPLKPLSAAEKIASIGQTATMSPDMNTCTSDQFQESLPPVQFDWSSSGLTNPLDASGGSTLLNLDFFGPVDDSSSSSSTTIPGVDPELYELTTSKLEISTSSLKVTDAFARLMSTVEKTSTSTRKPKREEHLSEEAIKVIAGLPDLTFMHAKVLMFPATLTPSTSSQEKADG [AFTPH] | -0.151 | 52 °C | 51.9 °C | -0.029 | -0.487 | -1.23
12 | MNMTQARVLVAAVVGLVAVLLYASIHKIEEGHLAVYYRGGALLTSPSGPGYHIMLPFITTFRSVQTTLQTDEVKNVPCGTSGGVMIYIDRIEVVNMLAPYAVFDIVRNYTADYDKTLIFNKIHHELNQFCSAHTLQEVYIELFDQIDENLKQALQKDLNLMAPGLTIQAVRVTKPKIPEAIRRNFELMEAEKTKLLIAAQKQKVVEKEAETERKKAVIEAEKIAQVAKIRFQQKVMEKETEKRISEIEDAAFLAREKAKADAEYYAAHKYATSNKHKLTPEYLELKKYQAIASNSKIYFGSNIPNMFVDSSCALKYSDIRTGRESSLPSKEALEPSGENVIQNKESTG [ERLIN1] | 0.24 | 52.7 °C | 53.1 °C | -0.0762 | 1.82 | 4.38

— the supplement of paper PMC5998384
